In experiment [1] the target is T1, human PTK7-Fc protein antigen (human, UniProt Q13308 31-704).
T1 construct: extracellular domain; also called human PTK7 extracellular segment protein; not shown: Fc from the pFUSE-IgG recombinant plasmid
T1 sequence (looked up): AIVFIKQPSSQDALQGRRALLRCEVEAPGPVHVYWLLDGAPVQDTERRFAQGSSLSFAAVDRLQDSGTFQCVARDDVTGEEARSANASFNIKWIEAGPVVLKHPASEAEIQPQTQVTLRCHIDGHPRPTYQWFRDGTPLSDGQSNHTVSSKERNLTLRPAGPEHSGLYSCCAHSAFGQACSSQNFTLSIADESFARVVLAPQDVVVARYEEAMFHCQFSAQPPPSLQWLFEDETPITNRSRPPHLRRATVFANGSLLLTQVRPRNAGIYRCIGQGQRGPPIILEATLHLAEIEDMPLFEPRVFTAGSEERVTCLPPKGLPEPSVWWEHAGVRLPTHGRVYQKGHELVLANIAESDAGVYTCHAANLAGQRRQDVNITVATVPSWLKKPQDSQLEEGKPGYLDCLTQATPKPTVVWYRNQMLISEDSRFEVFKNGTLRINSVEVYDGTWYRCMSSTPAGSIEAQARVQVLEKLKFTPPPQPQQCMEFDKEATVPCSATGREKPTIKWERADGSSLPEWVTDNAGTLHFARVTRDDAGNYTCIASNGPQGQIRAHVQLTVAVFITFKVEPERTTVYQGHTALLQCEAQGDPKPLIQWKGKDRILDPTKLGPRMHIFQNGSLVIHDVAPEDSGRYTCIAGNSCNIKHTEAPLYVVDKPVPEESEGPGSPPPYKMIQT
The experiment is described as follows: ELISA, antigen coated on plate, VHH in gradient dilution, anti-His/anti-HA-HRP; Kd calculated from absorbance at 450 nm. As for the experimental part:
(§1) The ELISA plates were coated with PTK7-Fc antigen proteins from human, or mouse species, or PTK7-His antigen protein from rhesus monkey species, overnight at 4° C. The plates were washed for 4 times with PBS-T the next day, added with 1% BSA, and blocked at room temperature for 2 hours. The plates were washed for 4 times with PBS-T, added with the anti-PTK7 single domain antibodies diluted in gradient, and kept at 37° C. for 1 hour. The plates were washed for 4 times with PBS-T, added with mouse anti-His-HRP antibody or mouse anti-HA-HRP antibody, and kept at 37° C. for 1 hour. The plates were washed for 4 times with PBS-T, added with TMB soluble substrate, and kept at room temperature for 10 minutes. The absorption value was read at a wavelength of 450 nm and the Kd value of each single domain antibody was calculated based on the absorption value.
(§2) The anti-PTK7 single domain antibodies of the present invention can bind to human, mouse or rhesus monkey PTK7.

In experiment [2] the target is T1, human PTK7-Fc protein antigen. The experiment is described as follows: SPR (Biacore 8K), human PTK7-Fc amine-coupled on CM-5 chip, VHH as analyte. As for the experimental part: The fixed phase human PTK7-Fc antigen proteins were fixed on the surface of CM-5 sensing chip using carboxyl amino reaction. The anti-PTK7 single domain antibodies were diluted with HBS buffer to different concentrations, and the anti-PTK7 single domain antibodies were added at a flow rate of 30 μl/min, binding for 90 seconds, dissociating for 600 seconds, and the binding process between the anti-PTK7 single domain antibody and the antigen was observed. After rinsing with 10 mM glycine solution for chip regeneration, the next anti-PTK7 single domain antibody assay was proceeded.

In experiment [3] the target is T2, PTK7-Fc antigen protein from mouse species (mouse, UniProt Q8BKG3 23-696, limits assumed).
T2 construct: also called Mouse PTK7; not shown: Fc
T2 sequence (looked up): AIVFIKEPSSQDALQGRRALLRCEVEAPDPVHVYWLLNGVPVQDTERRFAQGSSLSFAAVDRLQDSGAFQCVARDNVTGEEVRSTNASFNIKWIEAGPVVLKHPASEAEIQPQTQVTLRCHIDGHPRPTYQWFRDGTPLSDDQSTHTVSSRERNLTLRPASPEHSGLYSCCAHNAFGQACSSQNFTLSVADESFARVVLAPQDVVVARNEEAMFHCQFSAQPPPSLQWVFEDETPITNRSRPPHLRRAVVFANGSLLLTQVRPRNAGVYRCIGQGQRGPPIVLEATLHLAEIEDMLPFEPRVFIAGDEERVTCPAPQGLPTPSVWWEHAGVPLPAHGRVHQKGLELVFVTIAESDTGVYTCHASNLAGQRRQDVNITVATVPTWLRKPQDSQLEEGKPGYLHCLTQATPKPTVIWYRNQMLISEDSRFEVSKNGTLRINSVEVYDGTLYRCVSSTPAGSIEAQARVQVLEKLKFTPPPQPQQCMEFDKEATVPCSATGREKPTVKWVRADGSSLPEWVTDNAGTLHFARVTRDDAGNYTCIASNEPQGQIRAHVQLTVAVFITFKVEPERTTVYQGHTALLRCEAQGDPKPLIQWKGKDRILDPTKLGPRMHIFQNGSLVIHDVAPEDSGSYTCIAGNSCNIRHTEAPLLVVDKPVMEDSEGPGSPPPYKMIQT
The experiment is described as follows: ELISA, antigen coated on plate, VHH in gradient dilution, anti-His/anti-HA-HRP; Kd calculated from absorbance at 450 nm. Here is the method:
as §1, §2

The target in experiment [4] is T3, PTK7-His antigen protein from rhesus monkey species (rhesus monkey, UniProt F7G3Z5 39-712).
T3 construct: also called Rhesus monkey PTK7; not shown: His tag
T3 sequence: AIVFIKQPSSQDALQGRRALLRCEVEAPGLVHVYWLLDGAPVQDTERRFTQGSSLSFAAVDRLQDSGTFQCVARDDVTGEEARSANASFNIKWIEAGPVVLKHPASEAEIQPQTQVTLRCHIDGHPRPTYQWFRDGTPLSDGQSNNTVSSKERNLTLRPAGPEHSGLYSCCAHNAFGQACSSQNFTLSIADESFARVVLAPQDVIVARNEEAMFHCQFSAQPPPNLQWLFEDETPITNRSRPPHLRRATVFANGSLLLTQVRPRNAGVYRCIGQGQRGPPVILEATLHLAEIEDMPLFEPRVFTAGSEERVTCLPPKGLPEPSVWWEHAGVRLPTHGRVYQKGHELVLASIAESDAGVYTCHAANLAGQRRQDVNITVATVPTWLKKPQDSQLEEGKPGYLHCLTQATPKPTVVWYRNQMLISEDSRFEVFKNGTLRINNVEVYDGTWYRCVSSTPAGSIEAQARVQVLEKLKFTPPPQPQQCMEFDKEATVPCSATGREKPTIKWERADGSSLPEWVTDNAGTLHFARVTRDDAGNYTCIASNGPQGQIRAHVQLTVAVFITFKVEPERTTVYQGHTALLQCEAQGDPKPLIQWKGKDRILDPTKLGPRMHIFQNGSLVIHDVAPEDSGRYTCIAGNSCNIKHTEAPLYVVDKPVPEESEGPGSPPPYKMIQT
The description is as above. As for the experimental part:
as §1, §2

B1: MY2132-4-55 (VHH)
VHH: QVQLQESGGGSVQAGGSLRLSCAASGYIWSRYCMGWFRQAPGKAREGVARFNSDGNTRYVDSVKGRFTISRDNAKNTLYLQMNNLQPEDTARYYCAADPRFDCGYDAVFNPTHFPYWGRGTQVTVSS
notes: Camel VHH expressed in E. coli WK6 and purified on a nickel column; also called MY2132-4-55 VHH; anti-PTK7 single domain antibody
Regarding B1, the EC50 in experiment [1] is 0.49 nM. In experiment [2], this molecule had a Kd of 0.18 nM, a koff of 0.000314 s⁻¹ and a kon of 1.76e+06 M⁻¹ s⁻¹.

B2: MY2132-4-79 (VHH)
VHH: QVQLQESGGGSVQAGGSLRLSCAASGYIWSRYCMGWFRQAPGKAREGVARFNSDGNTRYVDSVKGRFTISRDNAKNTLYLQMNNLQPEDTARYYCAADPRFDCGYDAVFNPTHFPYWGQGTQVTVSS
notes: Camel VHH expressed in E. coli WK6 and purified on a nickel column; also called MY2132-4-79 VHH; anti-PTK7 single domain antibody
As for B2, the EC50 in experiment [1] was 0.59 nM. Further, in experiment [2], the affinity, expressed as Kd, was 0.22 nM; the koff is 0.000358 s⁻¹; the kon was 1.64e+06 M⁻¹ s⁻¹.

B3: MY2132-4-22 (VHH)
VHH: QVQLQESGGGSVQAGGSLRLSCTASGFTFDDYDMVWYRQAPGNEYEWLSTVSRGGNLYYADSVKGRFTISRDNAKNTVYLNMSRVKPEDTAVYYCAADLRSVPSTYRARTCRGRYCRDYWGQGTQVTVSS
notes: Camel VHH expressed in E. coli WK6 and purified on a nickel column; also called MY2132-4-22 VHH; anti-PTK7 single domain antibody
On to B3, for which the results for the EC50 in experiment [3], in experiment [1] and in experiment [4] were 12.7 nM, 0.33 nM and 0.3 nM, respectively. This molecule also yielded a Kd in experiment [2] of 2.13 nM. The molecule further yielded a koff in experiment [2] of 0.0322 s⁻¹. Moreover, in experiment [2], the kon came out at 1.51e+07 M⁻¹ s⁻¹.

B4: MY2132-5-51 (VHH)
VHH: QVQLQESGGGLVQPGGSLTLACAASGFAFSSYAMRWVRQAPGKGLEGVSSISAGGDETYYADFAKGRFTISRDNAKNTLYLQLNSLKTEDTAMYYCAKGDRNSPRYSSWPITPVGQGTQVTVSS
notes: Camel VHH expressed in E. coli WK6 and purified on a nickel column; also called MY2132-5-51 VHH; anti-PTK7 single domain antibody
B4: the EC50 in experiment [1] is 0.61 nM. Also, the EC50 in experiment [4] was 1.03 nM. In experiment [2], this molecule yielded a Kd of 3.45 nM, a koff of 0.00166 s⁻¹ and a kon of 482000 M⁻¹ s⁻¹.
